From publication PMC5268738 (2017) come the findings set out here.

For this assay, the target named is T1, human Mad1^CTD (human, UniProt Q9Y6D9 597-718).
T1 chain: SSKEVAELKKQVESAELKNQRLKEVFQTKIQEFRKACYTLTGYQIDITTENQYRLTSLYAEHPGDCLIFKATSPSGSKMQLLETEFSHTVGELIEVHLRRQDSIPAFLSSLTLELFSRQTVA
Description: ITC. (In ITC the heat of successive injections is recorded.)

Square brackets hold non-standard residues; d marks the D form. Ends that are not written are not given here. pT = C[C@@H](OP(=O)(O)O)[C@H](N)C(=O)O; pS = N[C@@H](COP(=O)(O)O)C(=O)O

As to CKVQPSP[pT]VHTKEALGFIMNMFQA [human Bub1 CM phospho-peptide pT461], binding was characterised by a dissociation constant (Kd) of 15.7 µM. That is a double-digit micromolar value.
On to CKVQP[pS]P[pT]VHTKEALGFIMNMFQA [human Bub1 CM phospho-peptide pS459-pT461], for which the Kd (usually the concentration at which binding is half-saturated) turned out to be 3.1 µM.
